Data on five molecules can be found in patent US20230192861A1 (ABL BIO, published 2023).

For experiment [1], the target named is PD-L1 (Biacore, Example 1.6) (UniProt Q9NZQ7 19-238, limits assumed). As to the kind of experiment: Biacore.
The target of experiment [2] is T1, PD-L1 expressed on RKO cells (human, UniProt Q9NZQ7 19-290).
T1 construct: whole, on cells; RKO cells carry both PD-L1 and B7-H3; also called PD-L1 expressed on cell surface
As to the kind of experiment: FACS on RKO cells (express both B7-H3 and PD-L1), FITC anti-human IgG.

Experiment [3] deals with T1, PD-L1 expressed on RKO cells. Described as above. This is another data set of the same source.
Experiment [4] has as its target T2, human B7-H3 expressed on the surface of human cancer cell lines (human, UniProt Q5ZPR3 29-534).
T2 construct: whole, on cells; also called cell surface expression B7-H3
T2 sequence (looked up): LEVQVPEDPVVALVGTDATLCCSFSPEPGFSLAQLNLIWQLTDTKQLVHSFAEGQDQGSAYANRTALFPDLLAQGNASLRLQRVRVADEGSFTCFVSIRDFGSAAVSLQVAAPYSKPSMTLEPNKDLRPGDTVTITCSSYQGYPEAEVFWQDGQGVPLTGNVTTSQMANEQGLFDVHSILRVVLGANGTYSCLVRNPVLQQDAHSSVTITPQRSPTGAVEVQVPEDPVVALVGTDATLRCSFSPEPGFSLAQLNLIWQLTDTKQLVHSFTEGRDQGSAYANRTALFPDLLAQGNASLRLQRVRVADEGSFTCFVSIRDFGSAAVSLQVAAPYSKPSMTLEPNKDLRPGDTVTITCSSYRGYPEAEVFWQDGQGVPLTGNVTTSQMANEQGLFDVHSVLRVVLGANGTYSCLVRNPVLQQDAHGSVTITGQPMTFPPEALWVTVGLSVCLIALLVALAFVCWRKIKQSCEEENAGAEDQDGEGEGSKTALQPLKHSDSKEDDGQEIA
Nature of the experiment: FACS on RKO cells (express both B7-H3 and PD-L1), FITC anti-human IgG; the signal is not split between the two targets.

The target of experiment [5] is T1, PD-L1 expressed on RKO cells. The description is as above.
In experiment [6] the target is T2, human B7-H3 expressed on the surface of …. As to the kind of experiment: FACS on RKO cells. On the procedure:
(§1) To evaluate the antigen binding property, 1+1 format bispecific antibodies were analyzed for its binding to mammalian expressed both B7-H3 and PD-L1 by FACS as compared to monospecific antibodies. Briefly, RKO cells (human colon carcinoma cell line) were incubated with antibodies. After wash by FACS buffer (1% BSA in PBS), the FITC-anti-human IgG antibody was added to each well and incubated at 4° C. for 1 hour. The MFI of FITC was evaluated by FACS Caliber. The results are described in FIG. 18.

Experiment [7] deals with T1, PD-L1 expressed on RKO cells. Nature of the experiment: FACS on RKO cells. On the procedure: as §1

Substitutions are numbered along the chain they refer to. Numbers in names are those of the source.

T1 sequence (Q9NZQ7 19-290): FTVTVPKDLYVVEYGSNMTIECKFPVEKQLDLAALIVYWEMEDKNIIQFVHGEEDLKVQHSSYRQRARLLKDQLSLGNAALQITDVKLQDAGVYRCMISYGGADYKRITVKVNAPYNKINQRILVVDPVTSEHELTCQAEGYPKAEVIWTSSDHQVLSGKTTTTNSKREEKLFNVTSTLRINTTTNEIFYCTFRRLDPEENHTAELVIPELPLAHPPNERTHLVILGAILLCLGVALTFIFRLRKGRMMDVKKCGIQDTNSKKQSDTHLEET
Chain of PD-L1 (Biacore, Example 1.6) (Q9NZQ7 19-238 limits assumed): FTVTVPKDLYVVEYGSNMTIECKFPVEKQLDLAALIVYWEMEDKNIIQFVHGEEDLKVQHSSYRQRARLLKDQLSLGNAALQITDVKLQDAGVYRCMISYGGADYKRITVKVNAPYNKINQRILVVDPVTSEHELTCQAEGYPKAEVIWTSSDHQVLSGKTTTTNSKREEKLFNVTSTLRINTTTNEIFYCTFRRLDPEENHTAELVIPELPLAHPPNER

B1: H12 (antibody, V domains shown)
VH: EVQLVESGGGLVQPGGSLRLSCAASGFTFSSYDMSWVRQAPGKSLEWVATISDAGGYIYYSDSVKGRFTISRDNAKNSLYLQMNSLRDEDTAVYICAREFGKRYALDYWGQGTTVTVSS
VL: DIQMTQSPSSLSASVGDRVTITCKASQDVTPAVAWYQQKPGKAPKLLIYSTSSRYTGVPSRFSGSGSGTDFTFTISSLQPEDIATYYCQQHYTTPLTFGQGTKLEIK
notes: Humanized anti-PD-L1 antibody; also called WT (H12); WT
With B1, in experiment [1], the Kd was determined as 6.12 nM, the koff stood at 0.000436 s⁻¹ and the kon is 71200 M⁻¹ s⁻¹.

B2: B6 (anti-PD-L1) (antibody, V domains shown)
VH: B1 VH with S61R, F100L, G101P, K102W
VL: B1 VL
notes: Engineered anti-PD-L1 clone
Turning to B2, in experiment [1], the Kd was found to be 4.25 nM, the koff stood at 0.000418 s⁻¹ and the kon was 98300 M⁻¹ s⁻¹. Moreover, in experiment [2], the “EC50 (read off the curve)” value was about 1 nM. Also, the concentration for a half-maximal effect (EC50 (read off the curve)) in experiment [3] was about 0.2 nM.

B3: B6xC4I(2+2) (bispecific antibody, human IgG1, kappa, N297A)
chain 1: not shown
chain 2: DIQMTQSPSSLSASVGDRVTITCKASQDVTPAVAWYQQKPGKAPKLLIYSTSSRYTGVPSRFSGSGSGTDFTFTISSLQPEDIATYYCQQHYTTPLTFGQGTKLEIKRTVAAPSVFIFPPSDEQLKSGTASVVCLLNNFYPREAKVQWKVDNALQSGNSQESVTEQDSKDSTYSLSSTLTLSKADYEKHKVYACEVTHQGLSSPVTKSFNRGEC
notes: not the 1+1 format B6xC4I; also called ABLPNB.04; B6xC4I (2+2 format)
On to B3, for which the “EC50 (read off the curve)” value in experiment [4] and in experiment [5] was about 1 nM each time.

B4: B6xB5(2+2) (bispecific antibody, human IgG1, kappa, N297A)
chain 1: not shown
chain 2: B3 chain 2
notes: also called ABLPNB.03; B6xB5 (2+2 format)
Regarding B4, the “EC50 (read off the curve)” value in experiment [4] and in experiment [5] was about 1 nM throughout.

B5: ABLPNB.09: bispecific antibody comprising the anti-PD-L1 B6 clone in (HC + LC) form and the anti-B7-H3 C4I clone in scFab-Fc form (bispecific antibody, human IgG1, kappa, lambda)
heavy: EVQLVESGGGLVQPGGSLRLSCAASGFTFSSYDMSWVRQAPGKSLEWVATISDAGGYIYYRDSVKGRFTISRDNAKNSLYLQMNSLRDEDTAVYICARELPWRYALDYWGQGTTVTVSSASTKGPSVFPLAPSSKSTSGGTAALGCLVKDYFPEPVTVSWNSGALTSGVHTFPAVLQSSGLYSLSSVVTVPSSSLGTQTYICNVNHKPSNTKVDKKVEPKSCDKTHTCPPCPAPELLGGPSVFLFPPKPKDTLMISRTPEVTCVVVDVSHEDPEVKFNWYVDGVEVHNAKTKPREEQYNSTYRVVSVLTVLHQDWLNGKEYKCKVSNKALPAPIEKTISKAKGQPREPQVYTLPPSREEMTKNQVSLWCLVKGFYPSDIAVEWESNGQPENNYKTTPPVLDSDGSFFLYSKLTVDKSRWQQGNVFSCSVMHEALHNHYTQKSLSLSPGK
light: B3 chain 2
chain: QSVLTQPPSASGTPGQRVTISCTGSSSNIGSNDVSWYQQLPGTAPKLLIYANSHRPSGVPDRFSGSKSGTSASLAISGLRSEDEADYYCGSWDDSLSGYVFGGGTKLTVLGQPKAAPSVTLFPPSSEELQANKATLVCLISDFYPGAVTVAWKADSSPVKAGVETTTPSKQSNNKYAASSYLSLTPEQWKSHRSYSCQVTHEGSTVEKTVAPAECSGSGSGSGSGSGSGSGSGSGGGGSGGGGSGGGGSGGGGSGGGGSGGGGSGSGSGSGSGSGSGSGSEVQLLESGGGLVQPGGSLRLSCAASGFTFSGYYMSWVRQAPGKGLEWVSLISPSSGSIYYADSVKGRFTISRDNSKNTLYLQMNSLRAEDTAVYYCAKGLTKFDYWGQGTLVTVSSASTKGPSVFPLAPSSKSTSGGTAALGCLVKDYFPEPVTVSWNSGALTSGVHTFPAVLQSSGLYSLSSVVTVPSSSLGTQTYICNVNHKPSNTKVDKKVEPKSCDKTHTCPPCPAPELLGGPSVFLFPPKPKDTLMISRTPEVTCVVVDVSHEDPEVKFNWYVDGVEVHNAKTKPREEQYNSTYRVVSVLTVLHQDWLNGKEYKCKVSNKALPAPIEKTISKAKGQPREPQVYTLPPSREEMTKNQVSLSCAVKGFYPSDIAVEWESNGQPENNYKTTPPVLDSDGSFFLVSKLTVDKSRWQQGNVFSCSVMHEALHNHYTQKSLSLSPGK
notes: Human IgG1, knobs-into-hole; also called B6xC4I (1+1 format)
In the case of B5, the binding result in experiment [6] and in experiment [7] was “binds” each time.
